# Reference: publication doi:10.1101/2023.07.25.550481
# T1: ZBTB48 ZnF10-11-C (Homo sapiens, UniProt P10074 548-620)
# T1 sequence: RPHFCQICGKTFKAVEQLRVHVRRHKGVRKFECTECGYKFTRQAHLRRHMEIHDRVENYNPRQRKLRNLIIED
# B1: CIITA e.2 crystal duplex (dsDNA)
# DNA 1: CACAAGTGAGGGATCA
# DNA 2: GTGATCCCTCACTTGT
# Target: T1, ZBTB48 ZnF10-11-C
# Assay: crystal structure
binder,measurement,value
B1,binding result,binds
